Measurements published in patent publication US20180179283A1 (ADICET BIO, published 2018).

B1: 905-2-D7 TCR-like antibody (antibody, mouse IgG1, kappa, V domains shown)
VH: QVQLKESGPGLVAPSQSLSITCTVSGFSLTSYGVHWVRQPPGKGLEWLGVIWAGGTTNYNSALMSRLSISRDNSKSQVFLEMNSLQTDDTAIYYCARDGHFHFDFWGQGTTLTVSS
VL: DIQMTQSPASLSVSVGETVTITCRASDIIYSNLAWYQQKQGKSPQLLVYAATNLAAGVPSRFSGSGSGTQYSLKINSLQSEDFGTYYCQHFWGSSISFGSGTKLEIKR
notes: also called Tyr D7
B2: 906-11-D11 TCR-like antibody (antibody, mouse IgG1, kappa, V domains shown)
VH: not shown
VL: DIQMTQSPSSLSASLGGKVTITCKASQDIHNYIAWYQHKPVKGPRLLIHYTSTLQPGTPSRFSGSGSGRDYSFSISNLEPEDIATYYCLQYDNLWTFGGGTKLEIKR
notes: also called Tyr D11
B3: C106B9 TCR-like antibody (antibody, mouse IgG1, kappa, V domains shown)
VH: QVQLQQSGGEVMKPGASVKLSCKATGYTFTGYWIEWIKQRPGHGLEWIGEILPGSGGTNYNEKFKGKATFTAHTSSNTAYMQLSSLTTEDSAIYYCARDSNSFTYWGQGTLVTVSS
VL: QIVLTQSPAIMSASPGEKVTITCSVSSSVDYIHWFQQKPGTSPKFWIYSTSILASGVPARFSGSGSGTSYSLTISRMEAEDAATYYCQQRSSYPPTFGSGTKLEIKR
notes: also called MAGE-A4 C106B9

How the values were obtained:
[1] = biological target: HLA-A2/MART1(26) control peptide on T2 cells (human); assay: FACS, T2 + MART1 peptide
[2] = biological target: T1, HLA-A2/P68 peptide on T2 cells; assay: FACS, T2 + P68 peptide
T1 construct: also called p68-DDX5

[3] = biological target: HLA-A2/MAGE-A4-A7 peptide on T2 cells (human); assay: FACS (MFI) vs native peptide, Ala-mutant peptide on T2 cells
[4] = biological target: HLA-A2/MAGE-A4-A5 peptide on T2 cells (human); assay: as above
[5] = biological target: HLA-A2/MAGE-A4-A6 peptide on T2 cells (human); assay: as above
[6] = biological target: HLA-A2/MAGE-A4-A2 peptide on T2 cells (human); assay: as above
[7] = biological target: HLA-A2/MAGE-A4-A4 peptide on T2 cells (human); assay: as above

Row | Binder | binding result [1] | binding result [2] | % decrease in binding [3] | % decrease in binding [4] | % decrease in binding [5] | % decrease in binding [6] | % decrease in binding [7]
1 | B1 | no binding | no binding |  |  |  |  | 
2 | B2 | no binding | no binding |  |  |  |  | 
3 | B3 |  |  | 90% | 90% | 90% | 33% | 90%
